According to paper PMC6277172 (Protein Engineering, Design and Selection, 2018):

Molecular target: N-terminal domain of MDM2 (M6-N125) (UniProt Q00987 6-125)
Assay: fluorescence polarisation

Sequence of N-terminal domain of MDM2 (M6-N125) (Q00987 6-125): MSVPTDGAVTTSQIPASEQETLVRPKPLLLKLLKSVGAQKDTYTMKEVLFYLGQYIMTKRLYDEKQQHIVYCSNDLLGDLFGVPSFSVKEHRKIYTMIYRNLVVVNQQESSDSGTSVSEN

B1: FAM labeled 12-1 peptide (peptide)
peptide: {FAM}-RFMDYWEGL-NH2
B1: binds.
